The target in the assay is T1, KRAS-G12V (Homo sapiens, UniProt P01116 1-189, limits assumed).
T1 construct: also called G12V mutant of KRAS
Nature of the assay: disruption of the JAK1/KRAS-G12V interaction; the sentence names TR-FRET (FIG. 2B) and GST pull-down (FIG. 2C) and does not say which gave the value; competitor JAK1. (In general: TR-FRET usually uses a lanthanide donor and a delayed reading to cut background.)

B1: RasKi: 8-mer 603-610 (peptide)
peptide: MDYKDDEG
notes: It was co-expressed or transduced by lentivirus in some cell assays; also called 8-mer WT; 8-mer peptide
B1 yielded an IC50 of 870 nM.

What is called IC50 is the concentration that gives 50% inhibition. Read a high IC50 as a need for much substance.

(Values after US20220306688A1 (EMORY UNIVERSITY, published 2022).)
